The text below walks through data of the supplement of paper PMC5998384.

Data set [1] concerns HeLa Kyoto. The data set can be described thus: solubility change mitosis vs G1/S (difference of NP-40 vs SDS log2 ratios) (log2 ratio difference); higher = more soluble in mitosis.
The test system of data set [2] is HeLa Kyoto. The data set can be described thus: melting temperature (median over replicates), in situ; higher = more thermally stable.
Data set [3] deals with HeLa Kyoto. Briefly: solubility in G1/S (NP-40 vs SDS abundance) (log2 ratio); higher = more soluble. As to conditions: cell cycle stage: G1/S.
For data set [4], the system named is HeLa Kyoto. The data set can be described thus: thermal stability score vs G1/S (z-score of summed log2 fold changes over temperatures); higher = more thermally stable than in G1/S.
Setting [5] is: cell cycle stage: early G1 (4.5 h after nocodazole release).
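For melting temperature (median over replicates), in situ in this document: HeLa Kyoto cells synchronized by double thymidine or nocodazole block, proteins quantified by TMT10plex mass spectrometry, three independent biological replicates.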
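For solubility change mitosis vs G1/S (difference of NP-40 vs SDS log2 ratios) in this document: synchronized HeLa Kyoto cells (double thymidine block for G1/S, nocodazole release for mitosis), protein amounts in NP-40 versus SDS lysates quantified by mass spectrometry, three biological replicates.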
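For solubility in G1/S (NP-40 vs SDS abundance) in this document: HeLa Kyoto cells arrested at G1/S by double thymidine block, proteins quantified by TMT10plex mass spectrometry in mild NP-40 versus SDS extracts, three biological replicates.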
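For thermal stability score vs G1/S (z-score of summed log2 fold changes over temperatures) in this document: synchronized HeLa Kyoto cells, proteins quantified by TMT10plex mass spectrometry, three biological replicates, mitosis taken 0.5 h after nocodazole release, G1/S directly after double thymidine block.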

As for “MLSALARPASAALRRSFSTSAQNNAKVAVLGASGGIGQPLSLLLKNSPLVSRLTLYDIAHTPGVAADLSHIETKAAVKGYLGPEQLPDCLKGCDVVVIPAGVPRKPGMTRDDLFNTNATIVATLTAACAQHCPEAMICVIANPVNSTIPITAEVFKKHGVYNPNKIFGVTTLDIVRANTFVAELKGLDPARVNVPVIGGHAGKTIIPLISQCTPKVDFPQDQLTALTGRIQEAGTEVVKAKAGAGSATLSMAYAGARFVFSLVDAMNGKEGVVECSFVKSQETECTYFSTPLLLGKKGIEKNLGIGKVSSFEEKMISDAIPELKASIKKGEDFVKTLK [MDH2]”, the “solubility change mitosis (log2)” value in data set [1] was -0.0422. Besides, the melting temperature was 56.9 °C in data set [2] (cell cycle stage: G1/S) and 57.2 °C in data set [2] (cell cycle stage: mitosis). For the same sequence, in data set [3], the “solubility in G1/S (log2)” value was found to be 0.383. The thermal stability score in data set [4] (setting [5]) is -0.843; in data set [4] (cell cycle stage: mitosis), -1.62.

As to “MLSEVLLVSAPGKVILHGEHAVVHGKVALAVSLNLRTFLRLQPHSNGKVDLSLPNIGIKRAWDVARLQSLDTSFLEQGDVTTPTSEQVEKLKEVAGLPDDCAVTERLAVLAFLYLYLSICRKQRALPSLDIVVWSELPPGAGLGSSAAYSVCLAAALLTVCEEIPNPLKDGDCVNRWTKEDLELINKWAFQGERMIHGNPSGVDNAVSTWGGALRYHQGKISSLKRSPALQILLTNTKVPRNTRALVAGVRNRLLKFPEIVAPLLTSIDAISLECERVLGEMGEAPAPEQYLVLEELIDMNQHHLNALGVGHASLDQLCQVTRARGLHSKLTGAGGGGCGITLLKPGLEQPEVEATKQALTSCGFDCLETSIGAPGVSIHSATSLDSRVQQALDGL [MVK]”, the “solubility change mitosis (log2)” value in data set [1] worked out at 0.006. Further, the melting temperature in data set [2] (cell cycle stage: G1/S) came out at 53.8 °C; in data set [2] (cell cycle stage: mitosis) it was 54.3 °C. The “solubility in G1/S (log2)” value in data set [3] amounted to 0.173. For the same sequence, the thermal stability score in data set [4] (setting [5]) was -0.0917; in data set [4] (cell cycle stage: mitosis), 0.34.

For the sequence “MLSLDFLDDVRRMNKRQLYYQVLNFGMIVSSALMIWKGLMVITGSESPIVVVLSGSMEPAFHRGDLLFLTNRVEDPIRVGEIVVFRIEGREIPIVHRVLKIHEKQNGHIKFLTKGDNNAVDDRGLYKQGQHWLEKKDVVGRARGFVPYIGIVTILMNDYPKFKYAVLFLLGLFVLVHRE [SEC11A]”, in data set [1], the “solubility change mitosis (log2)” value is -0.117. In addition, the melting temperature stood at 53.2 °C in data set [2] (cell cycle stage: G1/S) and 52.3 °C in data set [2] (cell cycle stage: mitosis). For the same sequence, the “solubility in G1/S (log2)” value in data set [3] is -0.21. Also, the thermal stability score came to 9.24 in data set [4] (setting [5]) and 7.47 in data set [4] (cell cycle stage: mitosis).

For “MLSLQYPDVYRDETAVQDYHGHKICDPYAWLEDPDSEQTKAFVEAQNKITVPFLEQCPIRGLYKERMTELYDYPKYSCHFKKGKRYFYFYNTGLQNQRVLYVQDSLEGEARVFLDPNILSDDGTVALRGYAFSEDGEYFAYGLSASGSDWVTIKFMKVDGAKELPDVLERVKFSCMAWTHDGKGMFYNSYPQQDGKSDGTETSTNLHQKLYYHVLGTDQSEDILCAEFPDEPKWMGGAELSDDGRYVLLSIREGCDPVNRLWYCDLQQESSGIAGILKWVKLIDNFEGEYDYVTNEGTVFTFKTNRQSPNYRVINIDFRDPEESKWKVLVPEHEKDVLEWIACVRSNFLVLCYLHDVKNILQLHDLTTGALLKTFPLDVGSIVGYSGQKKDTEIFYQFTSFLSPGIIYHCDLTKEELEPRVFREVTVKGIDASDYQTVQIFYPSKDGTKIPMFIVHKKGIKLDGSHPAFLYGYGGFNISITPNYSVSRLIFVRHMGGILAVANIRGGGEYGETWHKGGILANKQNCFDDFQCAAEYLIKEGYTSPKRLTINGGSNGGLLVAACANQRPDLFGCVIAQVGVMDMLKFHKYTIGHAWTTDYGCSDSKQHFEWLVKYSPLHNVKLPEADDIQYPSMLLLTADHDDRVVPLHSLKFIATLQYIVGRSRKQSNPLLIHVDTKAGHGAGKPTAKVIEEVSDMFAFIARCLNVDWIP [PREP]”, in data set [1], the “solubility change mitosis (log2)” value is -0.186. The melting temperature in data set [2] (cell cycle stage: G1/S) is 49.3 °C; in data set [2] (cell cycle stage: mitosis), 49.5 °C. For the same sequence, the “solubility in G1/S (log2)” value in data set [3] stood at 0.00417. The results for the thermal stability score in data set [4] (setting [5]) and in data set [4] (cell cycle stage: mitosis) were -0.0879 and 0.619, respectively.

As to “MLSLRVPLAPITDPQQLQLSPLKGLSLVDKENTPPALSGTRVLASKTARRIFQEPTEPKTKAAAPGVEDEPLLRENPRRFVIFPIEYHDIWQMYKKAEASFWTAEEVDLSKDIQHWESLKPEERYFISHVLAFFAASDGIVNENLVERFSQEVQITEARCFYGFQIAMENIHSEMYSLLIDTYIKDPKEREFLFNAIETMPCVKKKADWALRWIGDKEATYGERVVAFAAVEGIFFSGSFASIFWLKKRGLMPGLTFSNELISRDEGLHCDFACLMFKHLVHKPSEERVREIIINAVRIEQEFLTEALPVKLIGMNCTLMKQYIEFVADRLMLELGFSKVFRVENPFDFMENISLEGKTNFFEKRVGEYQRMGVMSSPTENSFTLDADF [RRM2]”, the “solubility change mitosis (log2)” value in data set [1] worked out at 0.14. Moreover, the melting temperature was found to be 56.8 °C in data set [2] (cell cycle stage: G1/S) and 56.4 °C in data set [2] (cell cycle stage: mitosis). In addition, in data set [3], the “solubility in G1/S (log2)” value is -0.239. Moreover, the thermal stability score is -6.63 in data set [4] (setting [5]) and -8.23 in data set [4] (cell cycle stage: mitosis).
